Kd data for 1 molecule are collected here from patent US12251370B2, “Small molecule inhibitors of the BfrB:Bfd interaction” (BOARD OF SUPERVISORS OF LOUISIANA STATE UNIVERSITY AND …, priority 2018, dated 2025).

Where “and” joins values, the source holds several entries; their conditions need not be identical. Equal entries are not always repeated. Where two headings read alike, the source gives them in different places.

For assay [1], the target named is T1, BfrB (Pseudomonas aeruginosa, UniProt Q9HY79). Kind of assay: Bfd association with BfrB in solution. To be noted: apo-BfrB; read-out: Kd, interaction between Bfd and apo-BfrB. It is filed as binding.
Assay [2] addresses T1, BfrB. As to conditions: holo-BfrB; previously reported; read-out: Kd, interaction between Bfd and BfrB (holo); cited from earlier work.

T1 sequence (Q9HY79 whole entry): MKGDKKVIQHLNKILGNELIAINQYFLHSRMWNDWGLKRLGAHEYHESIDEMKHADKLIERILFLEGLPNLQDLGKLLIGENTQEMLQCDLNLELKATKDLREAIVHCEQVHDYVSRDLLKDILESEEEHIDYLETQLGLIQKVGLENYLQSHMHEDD

B1: Bfd: bacterioferritin-associated ferredoxin, cognate partner of the iron storage protein BfrB (protein, UniProt Q9HY80 1-73, looked up)
Bacterioferritin-associated …: MYVCLCQGVTDNQIRDAIYEGCCSYREVREATGVGTQCGKCACLAKQVVRETLNDLQSAQPVPAFGTTAFVAA
Broadly, the Kd is a measure of binding affinity in units of concentration. In the case of B1, the Kd with BfrB [1] was 3.1 µM; with BfrB [2], 3.4 µM and 3 µM and ~3 µM.
